Reference: patent US20150079064

Experiments:
[1] = system: TALEN TN3 (FokI ELD-S/KKR-S) (Artificial); assay: cell_activity; conditions: pair with TN8; maximum in one DMD myoblast line (6.8% in the other); Surveyor; site preceded by 5'T
[2] = system: TALEN TN8 (FokI ELD-S/KKR-S) (Artificial); assay: cell_activity; conditions: pair with TN3; maximum in one DMD myoblast line (6.8% in the other); Surveyor; site preceded by 5'T

Sequence	activity (% alleles modified) [1]	activity (% alleles modified) [2]
AGCTCCTACTCAGACT (double strand) [TN3 half-site]	12.7	–
CCTTAGTAACCACAGGT (double strand) [TN8 half-site]	–	12.7
